{"source": "patent US20240067758A1", "about": "(UCB, published 2024)", "key": {"[1]": {"target": "T1, Human IL22 (human, UniProt Q9GZX6 34-179)", "T1 construct": "IL22 of the Biacore and cell assays", "T1 sequence": "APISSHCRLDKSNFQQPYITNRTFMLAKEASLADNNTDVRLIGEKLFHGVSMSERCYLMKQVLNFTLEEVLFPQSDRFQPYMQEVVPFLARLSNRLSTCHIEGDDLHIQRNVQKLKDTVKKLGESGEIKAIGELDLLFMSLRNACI", "experiment": "SPR (Biacore); human IL22"}, "[2]": {"target": "T1, Human IL22", "experiment": "SPR (Biacore); human IL22", "remark": "listed apart in the source"}, "[3]": {"target": "T1, Human IL22", "experiment": "cell-based or functional assay"}, "[4]": {"target": "T1, Human IL22", "experiment": "cell-based or functional assay", "remark": "listed apart in the source"}, "[5]": {"target": "T2, Human IL13 (human, UniProt P35225 35-146, limits assumed)", "experiment": "cell-based or functional assay"}, "[6]": {"target": "T2, Human IL13", "experiment": "cell-based or functional assay", "remark": "listed apart in the source"}, "[7]": {"target": "T2, Human IL13", "experiment": "cell-based or functional assay", "remark": "listed apart in the source"}, "[8]": {"target": "T1, Human IL22", "experiment": "SPR Biacore T200; mean KD", "procedure": "BIA (Biomolecular Interaction Analysis) was performed using T200 (GE Healthcare). Affinipure IgG-F(ab′)₂ Fragment goat anti-human IgG, F(ab′)₂ fragment specific (Jackson ImmunoResearch) was immobilized on a CM5 Sensor Chip via amine coupling chemistry to a capture level of ˜5000 response units (RUs). HBS-EP+buffer (10 mM HEPES pH 7.4, 0.15 M NaCl, 3 mM EDTA, 0.05% Surfactant P20, GE Healthcare) was used as the running buffer with a flow rate of 10 μL/min.\nThe surface was generated by 2×10 μL injections of 50 mM HCl, interspersed by a 10 μL injection of 5 mM NaOH at flowrate of 10 μL/min. Background subtraction binding curves were analyzed using the T200 evaluation software (version 3.0) following standard procedures. Kinetic parameters were determined from the fitting algorithm."}}, "note": "Several values for one entry are separate records, joined by “and”; a condition that tells them apart may be missing. Identical values can stand only once.", "data": [{"binder": "11041 (parental) (Fab, V domains shown) VH: QSVEESGGRLVTPGTPLTLTCTVSGFSLSSYAMIWVRQAPGEGLEWIGIIDIDGSTYYASWAKGRFTISRTSTTVDLKITSPTTGDTATYFCARDRFVGVDIFDPWGPGTLVTVSS VL: AVVLTQTASPVSAPVGGTVTIKCQASEDIYTNLAWYQQKPGQPPKLLIYWASTLASGVPSRFKGSGSGTEFTLTISDLECADAATYYCQACVYGNSADSRYTFGGGTEVVVK", "values": [{"measurement": "Kd", "setting": "[1]", "value": 569, "unit": "pM"}]}, {"binder": "11070 (Fab, V domains shown) VH: EVQLQESGPGLVQPSQTLSPTCTVSGFSLTSYSVHWVRQHSGKSLEWMGRMWSDGDTSYNSAFTSRLSITRDTSKSQVFLKMNSLQTEDTGTYYCARSLDFYYDTTLAFWGPGTTVTVSS VL: DIVMTQTPSNLAASPGESVSINCKASKTISKYLAWYQQKPGKANKLLIYSGSTLQSGTPSRFSGSGSSTDFTLTIRNLEPEDFGLYYCQQHNEYPLTFGSGTKLEIK", "values": [{"measurement": "Kd", "setting": "[2]", "value": 49, "unit": "pM"}]}, {"binder": "IL13K/IL22H knob in hole bispecific (bispecific antibody, human IgG4 S228P, kappa) heavy 1: not shown light 1: DIQMTQSPSSLSASVGDRVTITCKASQNINENLDWYQQKPGKAPKLLIYYTDILQTGIPSRFSGSGSGTDYTLTISSLQPEDFATYYCYQYYSGYTFGQGTKLEIKRTVAAPSVFIFPPSDEQLKSGTASVVCLLNNFYPREAKVQWKVDNALQSGNSQESVTEQDSKDSTYSLSSTLTLSKADYEKHKVYACEVTHQGLSSPVTKSFNRGEC heavy 2: EVQLVESGGGLVQPGGSLRLSCAVSGFSLSSYAMIWVRQAPGKGLEWIGIIDIEGSTYYASWAKGRFTISRDNSKNTVYLQMNSLRAEDTAVYYCARDRFVGVDIFDPWGQGTLVTVSSASTKGPSVFPLAPCSRSTSESTAALGCLVKDYFPEPVTVSWNSGALTSGVHTFPAVLQSSGLYSLSSVVTVPSSSLGTKTYTCNVDHKPSNTKVDKRVESKYGPPCPPCPAPEFLGGPSVFLFPPKPKDTLMISRTPEVTCVVVDVSQEDPEVQFNWYVDGVEVHNAKTKPREEQFNSTYRVVSVLTVLHQDWLNGKEYKCKVSNKGLPSSIEKTISKAKGQPREPQVYTLPPSQEEMTKNQVSLSCAVKGFYPSDIAVEWESNGQPENNYKTTPPVLDSDGSFFLVSRLTVDKSRWQEGNVFSCSVMHEALHNHYTQKSLSLSLGK light 2: AVQLTQSPSSLSASVGDRVTITCQASEDIYTNLAWYQQKPGKAPKLLIYWASTLASGVPSRFSGSGSGTDFTLTISSLQPEDFATYYCQASVYGNAADSRYTFGGGTKVEIKRTVAAPSVFIFPPSDEQLKSGTASVVCLLNNFYPREAKVQWKVDNALQSGNSQESVTEQDSKDSTYSLSSTLTLSKADYEKHKVYACEVTHQGLSSPVTKSFNRGEC", "values": [{"measurement": "IC50 (M) Geomean; IL22-induced IL-10 release, COLO205 cells; PB8920 (N = 2)", "setting": "[3]", "value": "6.38e-11", "unit": "M"}, {"measurement": "IC50 (M) Geomean; IL22-induced IL-10 release, COLO205 cells; PB8841 (N = 2)", "setting": "[4]", "value": "6.59e-11", "unit": "M"}, {"measurement": "IC50 (pM) Geomean, N = 2; STAT-6 reporter assay, HEK-Blue IL-4/IL13 cells; PB8920", "setting": "[5]", "value": 2.9, "unit": "pM"}, {"measurement": "IC50 (pM), concatenated IC50 values; STAT-6 reporter assay; PB8920", "setting": "[5]", "value": "2.1 pM and 4 pM"}, {"measurement": "IC50 (pM) Geomean, N = 2; STAT-6 reporter assay, HEK-Blue IL-4/IL13 cells; PB8841", "setting": "[6]", "value": 3.4, "unit": "pM"}, {"measurement": "IC50 (read off the curve), inhibition of eotaxin-3 secretion, primary human keratinocytes stimulated with IL-13 and IL-22 at 100 ng/ml", "setting": "[7]", "value": "~5000", "unit": "pM"}]}, {"binder": "TrYbe molecule with 11070 gL7gH16 IL22 domain (other) VL: DIQMTQSPSSVSASVGDRVTITCKASKTISKYLAWYQQKPGKANKLLIYSGSTLQSGVPSRFSGSGSGTDFTLTISSLQPEDFATYYCQQHNEYPLTFGQGTKLEIK VH: EVQLQESGPGLVKPSQTLSLTCTVSGFSLTSYSVHWVRQHPGKGLEWIGRMWSDGDTSYNTAFTSRLTISRDTSKNQVSLKLSSVTAADTAVYYCARSLDFYYDTTLAFWGQGTTVTVSS", "values": [{"measurement": "Kd", "setting": "[8]", "value": "< 100", "unit": "pM"}]}]}
